Molecular target: FcRn (human) (UniProt P55899)
Assay: Lumit FcRn binding immunoassay (competition); pH 6.0

Chain of FcRn (human) (P55899 24-297, chain 1 of 2): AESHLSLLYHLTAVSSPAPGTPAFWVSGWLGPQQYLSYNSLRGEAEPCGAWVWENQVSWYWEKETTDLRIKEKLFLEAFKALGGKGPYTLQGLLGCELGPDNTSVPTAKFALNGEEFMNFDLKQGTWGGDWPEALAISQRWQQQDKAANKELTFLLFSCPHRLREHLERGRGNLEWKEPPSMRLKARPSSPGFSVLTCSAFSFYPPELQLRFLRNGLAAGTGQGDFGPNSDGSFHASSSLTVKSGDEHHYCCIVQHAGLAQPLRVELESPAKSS
Chain of FcRn (human) (main, as listed by the source, chain 2 of 2): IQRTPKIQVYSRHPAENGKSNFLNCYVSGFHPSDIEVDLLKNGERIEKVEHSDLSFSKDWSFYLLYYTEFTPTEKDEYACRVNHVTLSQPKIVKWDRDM

In the case of hIgG1, the IC50 is reported as 12.8 nM.
